Experimental data published in patent US20240101688A1 (MYTHIC THERAPEUTICS, published 2024).

B1: MYT4940 (antibody, V domains shown)
VH: QVQLVQSGAEVKKPGASVKVSCKASGYIFTAYTMHWVRQAPGQGLEWMGWIKPNNGLANYAQKFQGRVTMTRDTSISTAYMELSRLRSDDTAVYYCARHEITTEFDHWGQGTLVTVSS
VL: DIVMTQSPDSLAVSLGERATINCKSSESVDSYANSHLHWYQQKPGQPPKLLIYRASTRESGVPDRFSGSGSGTDFTLTISSLQAEDVAVYYCQQSKEDPLTFGGGTKVEIKR
notes: Telisotuzumab variant
B2: MYT4325 (antibody, V domains shown)
VH: QVQLVQSGAEVKKPGASVKVSCKASGYTFTSYWMHWVKQAPGQGLDWIGYIKPSTDNTHYNQKFKDKATLTADKSTSTAYMELSSLRSEDTAVYYCARSYGHYPLMHYWGQGTTVTVSS
VL: QIVLTQSPAILSLSPGERATLSCSASSSVTSNYLYWYQQKPGSSPKLLIYSTSNLASGVPARFSGSGSGTSYTLTISSLEAEDAASYFCHQWSSYPPTFGSGTKLEIKR
notes: P3D12 variant

Experiments:
[1] = target: T1, MET (cMET, Sino Biological Cat. No. 10692-H08H) (UniProt P08581 25-932); experiment: BLI: antibody captured on anti-human Fc biosensor, MET in solution; three runs: pH 7.4 throughout, pH 6.4 throughout, association at pH 7.4 then release at lower pH (key on the sheet: pH 5.4; legend paragraph 84: pH 6.4); association 0-120 s
T1 construct: Soluble analyte of the BLI assays

[2] = target: T2, MET Proto-Oncogene, Receptor Tyrosine Kinase (MET), on cells (human, UniProt P08581 25-1390); experiment: flow cytometry titration on Detroit-562 cells (125K/cell), pH 7.4; printed as Affinity at pH 7.4
T2 construct: also called cMET; c-Met
Experimental: (§1) Measurement of the affinity of pH-engineered antibodies specific for MET was performed by FACS analysis on cell lines with ranges of cMET expression; Detroit-562 cells (ATCC; CCL-138), NCI-H1975 (ATCC CRL-5908) and HUVEC (C2519A, Lonza). Cell lines selected for this study were obtained from commercial sources and cultured using manufacturer recommended conditions. All cell lines were cultured upon receipt, expanded and cryopreserved at a similar passage number for use in the affinity experiments. Briefly, 1.0×10\hat{ }5 cells that express MET are plated per well in a 96-well plate in 100 μL media. The cells are washed two times with 200 μL of FACS buffer (1×PBS containing 3% Fetal Bovine Serum) at pH 7.4. The purified protein samples are diluted into FACS buffer at pH 7.4, for a titration from 100 nM to 1 pM, and added to the cells and allowed to bind for 2 hours on ice. After incubation with the primary antibodies, cells are washed twice as before, and then 100 μl of secondary goat anti-Human AF488 (IgG Cross-Adsorbed polyclonal secondary antibody), diluted 1:200, is added in FACS buffer pH 7.4, and incubated for 1 hour on ice. The plates are washed twice Binding is read on a flow cytometer (Accuri C6, BD Biosciences). Binding is observed as a shift in the FL1 signal (as a mean fluorescence intensity) versus secondary alone.

[3] = target: T2, MET Proto-Oncogene, Receptor Tyrosine …; experiment: flow cytometry titration on HUVEC cells (8k/cell), pH 7.4; printed as Affinity at pH 7.4; HUVEC cells (8k/cell), pH 7.4
Experimental: as §1

[4] = target: T2, MET Proto-Oncogene, Receptor Tyrosine …; experiment: affinity on HUVEC against affinity on Detroit-562, flow cytometry, pH 7.4
Experimental: as §1

T2 sequence (P08581 25-1390): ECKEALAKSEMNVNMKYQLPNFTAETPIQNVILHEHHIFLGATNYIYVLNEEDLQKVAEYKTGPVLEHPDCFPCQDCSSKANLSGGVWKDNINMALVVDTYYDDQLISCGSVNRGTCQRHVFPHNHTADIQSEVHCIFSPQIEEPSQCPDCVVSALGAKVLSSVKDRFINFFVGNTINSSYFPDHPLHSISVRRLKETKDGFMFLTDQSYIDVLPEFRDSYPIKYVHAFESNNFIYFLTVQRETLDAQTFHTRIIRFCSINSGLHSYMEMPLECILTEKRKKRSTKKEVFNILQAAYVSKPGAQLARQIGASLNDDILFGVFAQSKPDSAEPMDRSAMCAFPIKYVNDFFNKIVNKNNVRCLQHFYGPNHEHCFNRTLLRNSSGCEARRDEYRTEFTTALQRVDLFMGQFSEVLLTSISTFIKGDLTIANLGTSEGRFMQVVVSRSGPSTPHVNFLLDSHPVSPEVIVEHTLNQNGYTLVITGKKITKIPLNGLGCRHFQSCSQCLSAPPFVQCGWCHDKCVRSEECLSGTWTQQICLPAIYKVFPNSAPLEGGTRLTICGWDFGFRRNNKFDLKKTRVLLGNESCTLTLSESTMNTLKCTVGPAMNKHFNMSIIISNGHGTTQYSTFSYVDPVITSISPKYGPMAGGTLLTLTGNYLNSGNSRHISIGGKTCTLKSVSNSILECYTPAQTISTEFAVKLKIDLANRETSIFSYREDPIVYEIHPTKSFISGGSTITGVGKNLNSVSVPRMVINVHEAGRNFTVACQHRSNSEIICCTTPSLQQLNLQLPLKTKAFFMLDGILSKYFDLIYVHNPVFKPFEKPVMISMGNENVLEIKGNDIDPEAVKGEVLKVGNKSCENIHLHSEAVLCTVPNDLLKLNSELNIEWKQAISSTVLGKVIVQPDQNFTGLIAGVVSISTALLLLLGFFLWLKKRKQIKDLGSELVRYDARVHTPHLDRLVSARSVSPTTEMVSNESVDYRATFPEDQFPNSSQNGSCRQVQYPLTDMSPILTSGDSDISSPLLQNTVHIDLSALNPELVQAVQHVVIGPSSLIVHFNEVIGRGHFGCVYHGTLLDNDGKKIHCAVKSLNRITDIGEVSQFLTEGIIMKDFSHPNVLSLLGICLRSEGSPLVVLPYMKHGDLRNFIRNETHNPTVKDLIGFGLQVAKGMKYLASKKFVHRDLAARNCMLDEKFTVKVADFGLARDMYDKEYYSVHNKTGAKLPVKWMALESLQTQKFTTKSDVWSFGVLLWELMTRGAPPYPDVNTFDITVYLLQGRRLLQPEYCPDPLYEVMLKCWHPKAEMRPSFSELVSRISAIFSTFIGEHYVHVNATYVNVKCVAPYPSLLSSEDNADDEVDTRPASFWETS
T1 sequence (P08581 25-932 limits assumed): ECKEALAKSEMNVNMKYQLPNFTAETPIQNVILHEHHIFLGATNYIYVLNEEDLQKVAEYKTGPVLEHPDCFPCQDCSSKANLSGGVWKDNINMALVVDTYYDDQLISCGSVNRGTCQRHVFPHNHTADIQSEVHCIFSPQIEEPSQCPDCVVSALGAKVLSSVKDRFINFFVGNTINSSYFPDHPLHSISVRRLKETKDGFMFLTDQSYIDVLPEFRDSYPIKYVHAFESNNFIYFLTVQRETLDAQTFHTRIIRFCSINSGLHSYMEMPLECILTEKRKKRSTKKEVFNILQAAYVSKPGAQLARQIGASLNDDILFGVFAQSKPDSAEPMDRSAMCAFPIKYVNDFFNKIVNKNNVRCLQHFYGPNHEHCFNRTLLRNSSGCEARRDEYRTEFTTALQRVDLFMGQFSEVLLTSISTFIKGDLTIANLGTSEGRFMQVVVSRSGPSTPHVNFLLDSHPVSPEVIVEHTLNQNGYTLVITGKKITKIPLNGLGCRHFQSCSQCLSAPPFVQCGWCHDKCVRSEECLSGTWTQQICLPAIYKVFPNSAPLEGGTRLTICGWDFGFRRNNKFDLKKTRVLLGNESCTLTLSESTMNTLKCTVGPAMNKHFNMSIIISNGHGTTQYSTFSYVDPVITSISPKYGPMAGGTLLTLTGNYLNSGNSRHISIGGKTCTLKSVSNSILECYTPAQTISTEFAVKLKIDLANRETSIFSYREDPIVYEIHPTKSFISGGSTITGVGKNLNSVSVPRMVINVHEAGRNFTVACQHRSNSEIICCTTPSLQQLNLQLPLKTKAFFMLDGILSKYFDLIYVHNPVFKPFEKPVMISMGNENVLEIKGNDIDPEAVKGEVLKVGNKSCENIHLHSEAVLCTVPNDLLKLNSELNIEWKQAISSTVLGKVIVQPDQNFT

Row | Binder | binding result [1] | Kd [2] [nM] | Kd [3] [nM] | Fold Avidity [4] [fold]
1 | B1 | binds | – | – | –
2 | B2 | – | 0.903 | > 200 | > 220
